# Assay: soluble on expression in E. coli; label from the status in PepcDB or PDB records
row,Sequence,soluble on expression in E. coli
1,MTDGTPTTLTDRIEAALRDVRDPNADLSVFDAGFVENIDAADGEVTIEADLTALDGQTSTQVVQAMLHAVDDVDGVDSVHVERTTPTGEGNAGVESFDRVVAVASAKGGVGKSTVATHLACALAADNDVALFDADIHGPNVPELLDVSGPVHSSEEGDPLPVRAGDMDVMSVGLMESGAPLAWRGAMAHDALNDLFENTAWRNDDVLVLDLPPGTGDVVLTTLQEVPVDGVVVVTTPFHASVSDTSRTVELFRDNDVPVLGTVVNMAEYVCDCCGEPNDLFTGDALGDLDAEVLAELPFSHDLQGTPAPGSVPDAVSSLGDAVESALDTAGEVGVDPTADIRDLQPQERKDRVRERFTALDSGEPFVLVSDRDPTPVGQFLGRLAEAPREAFDPFEVRRETPEAWVLETAKPLEHHHHHH,soluble
2,MTDHLRGFYKAEFETARKKAHGVIFLHDGKIQGGDSTFLYSGAYSQSGLTVAGNLRGVRYSSDHSRLSVFGIEPFEITFDGVAKDGYVTIEGYAHETPSLPLKAILTRVDD,not soluble
3,MTDLELQQLVATISMHDFHRPFQHRAYFNARLRTTGGRYQLASHDIDINPKMLTDFDEATLIGVIKHELCHYHLHLTKRGYRHRDADFKRLLAQVGGSRYAPAPKQATARPYRYIYECQRCGRRYYRKRRMDTRRYTCGRCQGPIKLVLEHHHHHH,soluble
4,MTDLFASGDNSSNSFDDSNDEIARKNETAFKYTTIFHTNLSEKLYHELCALAFGEFDIPQGQISPLMWTRLHEIYSEVEMQTRKLPAGSNYSASSQKYANEAVQIASVLSIYTALAHEYDETVEVSLLSKLVVEDVEFRRIYALLLWSEKAISEQQYEKGLGDKVRKLEGIKSSRINSMMALKRPTFGAANAPKDASLDPDAPGTKEDQALEQMAMNVFFQLIRSGETSKAANLAIDLGMGAIGAQLQLHSMLRNPLDIPLEASKQNFGEYKRSRRAKYYQMTQKLIEQSQGSEDDAYWMLISAIRGNIQPMLKAGKSVIEKVWAYANSAVLARILAAEGAMTQETISTLFNVPLTSKSILDELRSEADRTKEVYILLRVIDDMLNDDIEDLYKFANETVGEFVPNDKNCQVNMLALDIFFHLVAVSYASGFEPNDDGNAVIILGFDDLRARSGTSSHKKMAAFYSRFLPEDMKLPEIVETMKAVDSDEEREILAESLKQSDIDFGRCACTLIEQIRKDDKTKVVTLEEQIDHWHWLLIGGEETALAALEECNRLVRKVMLSTPIDESVIRQIIRKALHFEVPKLLSQAVENEATVLSLITDGTLFEQKPGSQLAINKIEHAALEFYGLCSFVDVNNFMITIALKLGLMFKYTPITDDELSMIGGVKRLDNTTAADWEASLRVRARAEQTLREEVLKKRAAEHNTRVGMVQQHLDTVLPMLRGLVNNIGVRPEYFLSPRANGDPMRVHRKEIQEIRNLFLPQFFILLAQAAVRLDDTTNFNDFFTSFNNDLGLDQEWMVFIKAFYAELNLKVE,soluble
5,MTDLSRSQFGFRKARSTVDVVNIVVKVAAQAIEGIMVTLDIRNVFNTARWDRIIKALIGFGELAYLVRIIRSYFSKRVLLCESSEGVFSPQVTGGVPKGSVLGQLLWNAMKTGYFAYHWLRGTNRRLRGRRGFARCLEHHHHHH,not soluble
6,MTDNTAVRRRYEKSFTERPGFTEDEIEEIREAFNLLDTDGTGTIDPKEIKCAMQSLGLDAKNPMIFRMIADLEKDGYSSIDFEEFMEVITSKLGNKDTREGIQRIFNLFDDDKTGSISLKNLKRVAKELGETLTDEELRDMIDRADSKGEGEISFEDFYTIMTKKSFL,not soluble
7,MTDQPISLEEIRLRLNELDDQLLSLLSERRKLSIEVAKSKVQTSKPVRDAVREQQLLVKLISNGRDKYELDAQYITKLFHTIIEDSVLLQQGYLQNLVNPQQSRKPLARVAFLGAKGSYSHLASREYFSRKNTELIELNCEHFKEVTRTVESGHADYGVLPIENTSSGSINEVYDLLQHTTLYIVGELTQPIEHCLVATKDIRLEDIKTLYSHPQPHQQCSEFLSRMKGVKLESCASTADAMQKVQEMNRDDVAAIGNASSGKLYGLQAIQGNIANQTENHTRFIVVARKPVEVSTQIPAKTTLIMSTSQEAGSLVETLLVLQRYGINMTKLESRPIMGNPWEEMFYVDLEAHLGSTEMQQALQELTKITKHLKVLGCYPSENIKPTQVKLS,not soluble
8,MTDSKYFTTNKKGEIFELKAELNNEKKEKRKEAVKKVIAAMTVGKDVSSLFPDVVNCMQTDNLELKKLVYLYLMNYAKSQPDMAIMAVNSFVKDCEDPNPLIRALAVRTMGCIRVDKITEYLCEPLRKCLKDEDPYVRKTAAVCVAKLHDINAQMVEDQGFLDSLRDLIADSNPMVVANAVAALSEISESHPNSNLLDLNPQNINKLLTALNECTEWGQIFILDCLSNYNPKDDREAQSICERVTPRLSHANSAVVLSAVKVLMKFLELLPKDSDYYNMLLKKLAPPLVTLLSGEPEVQYVALRNINLIVQKRPEILKQEIKVFFVKYNDPIYVKLEKLDIMIRLASQANIAQVLAELKEYATEVDVDFVRKAVRAIGRCAIKVEQSAERCVSTLLDLIQTKVNYVVQEAIVVIRDIFRKYPNKYESIIATLCENLDSLDEPDARAAMIWIVGEYAERIDNADELLESFLEGFHDESTQVQLTLLTAIVKLFLKKPSETQELVQQVLSLATQDSDNPDLRDRGYIYWRLLSTDPVTAKEVVLSEKPLISEETDLIEPTLLDELICHIGSLASVYHKPPNAFVEGSHGIHRK,soluble
9,MTDSPGGVAPASPVEDASDASLGQPEEGAPCQVVLQGAELNGILQAFAPLRTSLLDSLLVMGDRGILIHNTIFGEQVFLPLEHSQFSRYRWRGPTAAFLSLVDQKRSLLSVFRANQYPDLRRVELAITGQAPFRTLVQRIWTTTSDGEAVELASETLMKRELTSFVVLVPQGTPDVQLRLTRPQLTKVLNATGADSATPTTFELGVNGKFSVFTTSTCVTFAAREEGVSSSTSTQVQILSNALTKAGQAAANAKTVYGENTHRTFSVVVDDCSMRAVLRRLQVGGGTLKFFLTTPVPSLCVTATGPNAVSAVFLLKPQK,soluble
10,MTDTAENQTQNNWQAGHPRSIRSFVLRQSHMTAAQQRAIDTLWDSFGIDYQATPADLDARFGSSRPKILEIGFGMGTATAEIARRLPETDFLAIDVHGPGVGNLLKLIDENHLENIRVMRHDAVEVVENMLQDGSLDGIHIFFPDPWHKKRHHKRRLIQAPFIAKLLPKLKTGGYIHLATDWEEYAQQMLEVLSSFDSLQNTAADYAPTPDYRPETKFEARGKRLGHGVWDLVFKRIG,not soluble
11,MTDTDTQADRFEQMMWQAVDKLFEQHDGKLESMDGREQELVLIWRTEADIGNGSILQFVCNWGFPAAEKTCSVLKKIGAVHSAMLIHRAADALDKEIRRLQSEGKNLKEMWDITSRQQNRLTAEQSG,not soluble
12,MTDTLLPAAPQPLEKEGDDYFRKGCNPLAQTGRSKLQNQRAALNQQILKAVRMRTGAENLLKVATNQKVREQVRLELSFVNSDLQMLKEELEGLNISVGVYQGTEEAFTIPLIPLGLKETKEVDFSIVFKDFILEHYSEDSYLYEDDIADLMDLRQACRTPSRDEAGVELLMSYFIQLGFVESRFFPPTRHMGLLFTWYDSFTGVPVSQQTLLLEKASVLFNIGALYTQIGTRCNRQTQAGLESAVDAFQRAAGVLNYLKETFTHTPSYDMSPAMLSVLVKMMLAQAQESVFEKVCLPGIQNEFFVLVKVAQEAAKVAEAYRQLHAAMSQEPVKENIPYSWASVAYVKAYHYGALAHYFAATLLIDHQLKPGADEDHQEKCLSQLYDRMPEGMTPLATLKNAGQRVLLGKGHLHRAIGFHEESLREANLCKKLRDIQVLRDVLSAAHQRTQLKHTQHREDDDLLNLIDAPDVLPKTEREVKITFPDFSKVTVTDFFQKLGPLSVFSASKRWSPPRGIHFTVEEGDLGFTLRGNTPVQVHFLDPHCSASLAGAKEGDYIVSIQGVDCKWLTVSEVMKLLKSFGGEEVEMKVVSLLDSTSSMHNKCATYSVGMQKTYSMICLSMDDDDKADKTKKISKKLSFLSWGTSKNRQKSASTLCLPEVGLARSQNKKKLPTPFSLLNSDSSLY,soluble
13,MTEETKPIKIAVIRCDIVSEACPGVGCFKAFNERKSYFKEYDEKAQMIAFFTCGGCSGRRVYRLLKALKKHNPDVVHLSSCMLMEDSYPRCPNIDTIRKTIQDAGIKVVEGTHH,not soluble
14,MTEITGGTLVLVGADHPVAHLDVTAFEASVTHDVMAASVAGTGLGVSTATAAGLSHLVVDAGVAQPVQGARSVRIRGERGDLRHADAMTPVQVEALLRDGQALGAEASHDGLVCLGEVGVGNTTIATALACAMTGLGPDEAVGLGAGSDTAMVERKAEIIKAALTRTHTDPNDPERLLAALGGPEFAVLAGVCLGAAEAGSPVVLDGLATSVAALIATKFSPGLHGWLVASQASREQVHHIVLAELGLEALMELRMRAGEGVGACFGAQMILTGLQVRRTAARTCLEHHHHHH,not soluble
15,MTEITHRTKTRPVKVGNLTIGGNNEVVVQSMTTTKTHDVEATVAEIKRLEEAGCQVVRVACPDMRAAEAIPAIKKQISIPLVVDIHFDYKLALKAIEGGADKIRINPGNIGKRHKVEAVVKAAKEKGIPIRIGVNAGSLEKRILDKYGYPTADGMVESALHHIKILEDLDFHDIIVSMKASDVNLAIEAYEKAAKAFDYPLHLGITESGTLFAGTVKSAAGLGAILNMGIGNTVRVSLSADPVEEVKVARELLKSFGLASNAATLISCPTCGRIEIDLISIANEMEEYISKIRAPIKVAVLGCAVNGPGEAREADIGIAGARGEGLLFRKGEIVRKVPEETMVEELKKEIDKIAEEYFAKQKELEKALEHHHHHH,soluble
16,MTEKKERIDVHAYLAEFDDIPGTRVFTAQRARKGYNLNQFAMSLMKAENRERFKADESAYLDEWNLTPAAKAAVLARDYNAMIDEGGNVYFLSKLFSTDGKSFQFAAGSMTGMTQEEYAQMMIDGGRSPAGVRSIKGGY,soluble
17,MTENFFGKTLAARPVEAIPGMLEFDIPVHGDNRGWFKENFQKEKMLPLGFPESFFAEGKLQNNVSFSRKNVLRGLHAEPWDKYISVADGGKVLGTWVDLREGETFGNTYQTVIDASKSIFVPRGVANGFQVLSDFVAYSYLVNDYWALELKPKYAFVNYADPSLDIKWENLEEAEVSEADENHPFLKDVKPLRKEDL,soluble
18,MTEPIKEIAAKRSVEAVYTGGTVRWSANGQKLFSTCTNVVKVIDLADNTASYTIGDPEDELRITCTAVDKNRNRLLVAYNNQIIREYSIPLDPSTTKPELARTWKTIHTAPILVMEFNEEGHLLATGSADHIVKVWNLTEQQCTHTLKGPSVVSAILFGKHEKLVVGYIEGQLNLYNIMRGAPKKLVNTWKSHNSHITALLQVPDSRVVVALSRDQTMSIHETETQETLRVLPLYESIEGGAIGHNGNLFTVGEEGVVKEFVIETAKLVRKKRIASSNLDHLAYDVVSNRFLAISAEQNLIILDFENLKIARQIVGFHDEIYSCCLLGKDESHMAVASNTSEIRLYNTKTLDCQLIRGHTESVLSVVSPTWDTSLLASCSKDNSIIFWRLVTSPENDSCSTLVPVAAATGHANTVTALAISNTGRAPFLASVSTDCTIKLWGLGVSTKLKEVKIDAEKDFVEQLPKLTCSSTMVAHGKDVNCVDISESDALIATGGMDKLVKLWQVDTHKMQLGIAGTLSGHRRGVGDVKFAKNSHKLASCSGDMTIKIWNISEKSCLQTISGHSCAVFRVIFARNDSQLISADSAGIIKIWTIKTADCECSIDAHTDKIWSLSKNHNESEFVTAGTDGRIVVWKDVTEEKQKAEDNKRREAIEQDQTLTNLLSQKRYSEALVFALTLAKPFCAFKVINALMAEETPEELGSAIRRLDTRQIEILLQFTVKWNTNSRTSSVAQRVLYEIVHIVDPEELVSMPGAYGYIESFLPYTQRHMDRLDRAKQDVSLFDFVWRQMRSSV,not soluble
